US20220402983A1 (Janssen / Centocor, published 2022)
Bridges are numbered along the chain shown (N, C = ends). [ ]: non-standard residue; d: D form. The star is where a group is joined. Trp(7-Me) = Cc1cccc2c(C[C@H](N)C(=O)O)c[nH]c12; 2Nal = N[C@@H](Cc1ccc2ccccc2c1)C(=O)O; Propanoyl(3,3,3-F3) = O=C(CC(F)(F)F)*; AEF = NCCOc1ccc(C[C@H](N)C(=O)O)cc1; αMeF = C[C@](N)(Cc1ccccc1)C(=O)O; Pen = CC(C)(S)[C@H](N)C(=O)O; αMeK = C[C@](N)(CCCCN)C(=O)O; Thp = NC1(C(=O)O)CCOCC1; Abu = CC[C@H](N)C(=O)O

T1: human IL-23R (interleukin-23 receptor) (human, UniProt Q5VWK5 24-629)
T1 sequence (looked up): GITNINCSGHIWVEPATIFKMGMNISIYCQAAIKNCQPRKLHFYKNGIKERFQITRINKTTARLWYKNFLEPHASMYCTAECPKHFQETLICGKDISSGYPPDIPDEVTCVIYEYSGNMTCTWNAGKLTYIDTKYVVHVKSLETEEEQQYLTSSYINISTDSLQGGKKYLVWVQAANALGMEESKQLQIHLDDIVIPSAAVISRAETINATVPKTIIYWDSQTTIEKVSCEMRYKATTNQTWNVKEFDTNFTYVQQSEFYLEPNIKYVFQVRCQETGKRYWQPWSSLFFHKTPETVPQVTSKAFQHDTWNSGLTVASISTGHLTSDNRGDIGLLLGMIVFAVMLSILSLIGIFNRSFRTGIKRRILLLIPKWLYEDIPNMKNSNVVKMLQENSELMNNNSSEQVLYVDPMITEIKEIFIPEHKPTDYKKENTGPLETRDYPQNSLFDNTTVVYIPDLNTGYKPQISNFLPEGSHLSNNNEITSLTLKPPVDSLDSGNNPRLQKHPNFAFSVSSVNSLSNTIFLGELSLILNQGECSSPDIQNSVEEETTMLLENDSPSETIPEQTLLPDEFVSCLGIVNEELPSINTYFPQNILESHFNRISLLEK

B1: Compound No. 5 (peptide)
peptide: {Propanoyl(3,3,3-F3)}-[dR][Pen]QTWQ[Pen][AEF][2Nal][Thp]EN[Thp]-NH2
modifications: disulfide 2-7
SMILES: C[C@@H](O)[C@@H]1NC(=O)[C@H](CCC(N)=O)NC(=O)[C@@H](NC(=O)[C@@H](CCCNC(=N)N)NC(=O)CC(F)(F)F)C(C)(C)SSC(C)(C)[C@@H](C(=O)N[C@@H](Cc2ccc(OCCN)cc2)C(=O)N[C@@H](Cc2ccc3ccccc3c2)C(=O)NC2(C(=O)N[C@@H](CCC(=O)O)C(=O)N[C@@H](CC(N)=O)C(=O)NC3(C(N)=O)CCOCC3)CCOCC2)NC(=O)[C@H](CCC(N)=O)NC(=O)[C@H](Cc2c[nH]c3ccccc23)NC1=O
B2: Compound No. 64 (peptide)
peptide: Ac-[Abu]QT[Trp(7-Me)]K(Ac)C[AEF][2Nal][αMeK]K(Ac)N[dK]-NH2
modifications: thioether 1-6
B3: Compound No. 65 (peptide)
peptide: Ac-[Abu]QT[Trp(7-Me)]K(Ac)C[AEF][2Nal][αMeK]K(Ac)N[dL]-NH2
modifications: thioether 1-6
B4: Compound No. 66 (peptide)
peptide: Ac-[Abu]QT[Trp(7-Me)]K(Ac)C[AEF][2Nal][αMeK]K(Ac)N[αMeF]-NH2
modifications: thioether 1-6
B5: Compound No. 75 (peptide)
peptide: Ac-[Pen]NT[Trp(7-Me)]K(Ac)[Pen][AEF][2Nal][αMeK]K(Ac)N[Thp]-NH2
modifications: disulfide 1-6
SMILES: CC(=O)NCCCC[C@@H]1NC(=O)[C@H](Cc2c[nH]c3c(C)cccc23)NC(=O)[C@H]([C@@H](C)O)NC(=O)[C@H](CC(N)=O)NC(=O)[C@@H](NC(C)=O)C(C)(C)SSC(C)(C)[C@@H](C(=O)N[C@@H](Cc2ccc(OCCN)cc2)C(=O)N[C@@H](Cc2ccc3ccccc3c2)C(=O)N[C@@](C)(CCCCN)C(=O)N[C@@H](CCCCNC(C)=O)C(=O)N[C@@H](CC(N)=O)C(=O)NC2(C(N)=O)CCOCC2)NC1=O
B6: Compound No. 76 (peptide)
peptide: Ac-[Pen]NT[Trp(7-Me)]K(Ac)[Pen][AEF][2Nal][αMeK]K(Ac)N[αMeF]-NH2
modifications: disulfide 1-6
SMILES: CC(=O)NCCCC[C@@H]1NC(=O)[C@H](Cc2c[nH]c3c(C)cccc23)NC(=O)[C@H]([C@@H](C)O)NC(=O)[C@H](CC(N)=O)NC(=O)[C@@H](NC(C)=O)C(C)(C)SSC(C)(C)[C@@H](C(=O)N[C@@H](Cc2ccc(OCCN)cc2)C(=O)N[C@@H](Cc2ccc3ccccc3c2)C(=O)N[C@@](C)(CCCCN)C(=O)N[C@@H](CCCCNC(C)=O)C(=O)N[C@@H](CC(N)=O)C(=O)N[C@@](C)(Cc2ccccc2)C(N)=O)NC1=O
B7: Compound No. 77 (peptide)
peptide: Ac-[dR][Pen]NT[Trp(7-Me)]K(Ac)[Pen][AEF][2Nal][Thp]EN[αMeF]-NH2
modifications: disulfide 2-7
SMILES: CC(=O)NCCCC[C@@H]1NC(=O)[C@H](Cc2c[nH]c3c(C)cccc23)NC(=O)[C@H]([C@@H](C)O)NC(=O)[C@H](CC(N)=O)NC(=O)[C@@H](NC(=O)[C@@H](CCCNC(=N)N)NC(C)=O)C(C)(C)SSC(C)(C)[C@@H](C(=O)N[C@@H](Cc2ccc(OCCN)cc2)C(=O)N[C@@H](Cc2ccc3ccccc3c2)C(=O)NC2(C(=O)N[C@@H](CCC(=O)O)C(=O)N[C@@H](CC(N)=O)C(=O)N[C@@](C)(Cc3ccccc3)C(N)=O)CCOCC2)NC1=O
B8: Compound No. 92 (peptide)
peptide: Ac-[dR][Pen]NT[Trp(7-Me)]K(Ac)[Pen][AEF][2Nal][Thp]EN[Thp]-NH2
modifications: disulfide 2-7
SMILES: CC(=O)NCCCC[C@@H]1NC(=O)[C@H](Cc2c[nH]c3c(C)cccc23)NC(=O)[C@H]([C@@H](C)O)NC(=O)[C@H](CC(N)=O)NC(=O)[C@@H](NC(=O)[C@@H](CCCNC(=N)N)NC(C)=O)C(C)(C)SSC(C)(C)[C@@H](C(=O)N[C@@H](Cc2ccc(OCCN)cc2)C(=O)N[C@@H](Cc2ccc3ccccc3c2)C(=O)NC2(C(=O)N[C@@H](CCC(=O)O)C(=O)N[C@@H](CC(N)=O)C(=O)NC3(C(N)=O)CCOCC3)CCOCC2)NC1=O

Assays:
[1] = target: T1, human IL-23R (interleukin-23 receptor); assay: cell-based or functional assay
[2] = target: T1, human IL-23R (interleukin-23 receptor); assay: cell-based or functional assay; remark: listed apart in the source

Binder	PBMC pSTAT3 IC50 (nM) [1] [nM]	pStat3 HTRF (nM), IC50, DB cells IL23R pSTAT3 cell assay [1] [nM]	NK Cell Assay (nM), IC50, IFN-gamma after IL-23 and IL-18 [2] [nM]
B1	4.7	2.94	10.3
B2		0.889	5.44
B3		0.966	6.03
B4		2.27	13.1
B5	8.9	0.787	2.69
B6	11	1.5	4.01
B7	6.4	0.353	2.33
B8	3.3	0.206	1.46
